Test results as given in publication PMC8188256 (Data in Brief, 2021).
Values joined by “and” are separate entries in the source; they are usually repeats but may differ in a detail not shown here. Equal values may be shown once. Blank lines part the entries; values can stand above or below the molecule they belong to.

Key:
DnaKLS (E. coli) = DnaKLS (E. coli) (UniProt P0A6Y8); test: SPR
DnaK = DnaK (Escherichia coli, UniProt P0A6Y8); test: biochemical
[1] = molecular target: PfHsp70–1 (Plasmodium falciparum); test: SPR
[2] = molecular target: PfHsp70-zLS (Plasmodium falciparum); test: SPR
[3] = molecular target: PfHsp70–1LS (Plasmodium falciparum); test: SPR
[4] = molecular target: Plasmodium falciparum Hsp110 (PfHsp70-z) (Plasmodium falciparum); test: SPR

DnaJ, sequence (P08622 whole entry): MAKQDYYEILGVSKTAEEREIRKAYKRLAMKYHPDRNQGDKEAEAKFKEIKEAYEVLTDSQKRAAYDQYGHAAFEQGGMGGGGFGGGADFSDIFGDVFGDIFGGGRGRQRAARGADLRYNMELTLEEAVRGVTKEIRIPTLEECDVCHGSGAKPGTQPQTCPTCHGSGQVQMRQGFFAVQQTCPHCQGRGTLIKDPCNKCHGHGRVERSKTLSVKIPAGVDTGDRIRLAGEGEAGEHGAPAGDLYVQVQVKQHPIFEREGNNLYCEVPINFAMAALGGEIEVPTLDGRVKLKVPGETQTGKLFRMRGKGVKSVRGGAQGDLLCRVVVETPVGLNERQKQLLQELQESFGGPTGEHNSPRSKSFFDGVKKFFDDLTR
DnaK, sequence (P0A6Y8 2-638): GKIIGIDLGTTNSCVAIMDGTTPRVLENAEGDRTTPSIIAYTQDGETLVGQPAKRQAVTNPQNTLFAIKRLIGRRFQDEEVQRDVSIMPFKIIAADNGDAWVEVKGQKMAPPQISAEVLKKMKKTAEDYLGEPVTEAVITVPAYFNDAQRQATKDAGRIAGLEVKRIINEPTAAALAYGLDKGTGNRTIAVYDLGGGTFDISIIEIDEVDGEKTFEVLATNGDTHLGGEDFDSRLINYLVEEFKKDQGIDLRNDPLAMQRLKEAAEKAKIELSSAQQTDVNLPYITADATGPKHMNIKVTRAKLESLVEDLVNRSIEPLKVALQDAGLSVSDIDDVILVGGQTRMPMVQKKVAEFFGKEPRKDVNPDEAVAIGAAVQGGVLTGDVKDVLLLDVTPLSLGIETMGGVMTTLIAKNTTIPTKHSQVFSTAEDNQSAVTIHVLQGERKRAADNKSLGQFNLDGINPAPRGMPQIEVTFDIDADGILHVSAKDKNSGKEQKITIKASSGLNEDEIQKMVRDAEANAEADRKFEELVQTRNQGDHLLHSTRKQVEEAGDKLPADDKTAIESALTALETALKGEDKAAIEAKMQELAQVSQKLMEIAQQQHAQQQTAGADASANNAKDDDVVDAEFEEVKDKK

koff (DnaKLS (E. coli)): 0.0676 s⁻¹ and 0.0732 s⁻¹ and 0.0522 s⁻¹
Molecule: DnaJ (from UniProt P08622 1-376) (natural protein)

Kd (DnaK): 398 nM
Molecule: Nc1ncnc2c1ncn2[C@@H]1O[C@H](COP(=O)(O)OP(=O)(O)OP(=O)(O)O)[C@@H](O)[C@H]1O [ATP]

Molecule: PfHsp40 (natural protein)
koff [1]: 0.0815 s⁻¹ and 0.0866 s⁻¹ and 0.0361 s⁻¹
kon [2]: 9020 M⁻¹ s⁻¹ and 6170 M⁻¹ s⁻¹ and 7250 M⁻¹ s⁻¹
kon [3]: 6040 M⁻¹ s⁻¹ and 2200 M⁻¹ s⁻¹ and 6140 M⁻¹ s⁻¹
koff [4]: 0.0713 s⁻¹ and 0.0396 s⁻¹ and 0.0369 s⁻¹
